Test results as given in the nanobody polyreactivity screen of Harvey et al. (2022).

Experiment: yeast display, Sf9 membrane polyspecificity reagent, FACS + sequencing; frameworks hold sequencing errors
In short: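 Polyreactivity labels are assigned by the sorting gate from which each nanobody was recovered. The gates were low and high (top ~1%), set on anti-HA fluorescence for expression and streptavidin fluorescence for reagent binding. Before sorting, galactose-induced (36–48 hours) yeast display cells were stained for 1 hour at 4 °C with 10% biotinylated, detergent-solubilized Sf9 membrane reagent.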

Sequence	polyreactivity (PSR sort gate)
QVQLVESGGGLVQAGGSLRLSCAASGFIFYGNTMGWYRQAPGKERELVAAISWSGGTTYYADSVKGRFTISRDNAKNTVYLQMNSLKPEDTAVYYCNRAAFRYRYDYWGQGTQVTVSS	high polyreactivity
QVQLVESGGGLVQAGGSLRLSCAASGFIFYHYAMGWYRQAPGKERELVAAISWSGGSTYYADSVKGRFTISRDNAKNTVYLQMNSLKPEDTAVYYCAAANTNRFPYGYWGQGTQVTVSS	high polyreactivity
QVQLVESGGGLVQAGGSLRLSCAASGFIFYINAMVWYRQAPGKERELVAAITNVGSTNYADSVKGRFTISRDNAKNTVYLQMNSLKPEDTAVYYCAAEKGLVALVYKYDYWGQGTQVTVSS	low polyreactivity
QVQLVESGGGLVQAGGSLRLSCAASGFIFYKNAKGWYRQAPGKERELVAAISQIGGTTYYADSVKGRFTISRDNAKNTVYVQMNSLKPEDTAVYYCAASRRVQSDYWGQGTQVTVSS	high polyreactivity
QVQLVESGGGLVQAGGSLRLSCAASGFIFYKYAKGWYRQAPGKEREFVAAITWSGGNTYYADSVKGRFTISRDNAKNTVYLQMNSLKPEDTAVYYCAARDSKWGQGTQVTVSS	low polyreactivity
QVQLVESGGGLVQAGGSLRLSCAASGFIFYLNVMGWYRQAPGKERELVATITSGGSTNYADSVKGRFTISRDNAKNTVYLQMNSLKPEDTAVYYCAARRGKSYYWYNYWGQGTQVTVSS	high polyreactivity
QVQLVESGGGLVQAGGSLRLSCAASGFIFYQYAMGWYRQAPGKERELVAAISKSGGNTYYADSVKGRFTISRDNAKNTVYLQMNSLKPEDTAVYYCAADRGQRGMYYWGQGSQVTVSS	high polyreactivity
QVQLVESGGGLVQAGGSLRLSCAASGFIFYQYAMGWYRQAPGKERELVATISFRGGRTYYADSVKGRFTISRDNAKNTVYLQMNSLKPEDTAVYYCNAKRVSSRFYKWDYYWGQGTQVTVSS	high polyreactivity
QVQLVESGGGLVQAGGSLRLSCAASGFIFYQYAMGWYRQAPGKERELVAVISRTGSTSYADSVKGRFTISRDNAKNTVYLQMNSLKPEDTAVYYCAARYYFYDYWGQGSQVTVSS	high polyreactivity
QVQLVESGGGLVQAGGSLRLSCAASGFIFYRNAMGWYRPAPGKERELVAAINRGGSTYYADSVKGRFTISRDNAKNTVYLQMNSLKPEDTAVYYCAAYHLRPSRYDYWGQGTQVTVSS	high polyreactivity
QVQLVESGGGLVQAGGSLRLSCAASGFIFYRNTMGWYRQAPGKERELVAAISVSGGSTNYADSVKGRFTISRDNAKNTVYLQMNSLKPEDTAVYYCAARVRDSLVYGGWDDYWGQGTQVTVSS	high polyreactivity
QVQLVESGGGLVQAGGSLRLSCAASGFIFYRYALGWYRQAPGKERELVAAISRSGGSTYYADSVKVRFTISRDNAKNTVYLQMNSLKPEDTAVYYCAVTGYWYYHDHYSYPSRYYYWGQGTQVTVSS	high polyreactivity
QVQLVESGGGLVQAGGSLRLSCAASGFIFYRYAMGWYRQAPGKERELVAAISGSGGRTYYADSVKGRFTISRDNAKNTVYLQMNSLKPEDTAVYYCAADKQAYVTDDYWGKGTQVTVSS	high polyreactivity
QVQLVESGGGLVQAGGSLRLSCAASGFIFYRYAMGWYRQAPGNERELVAAISSGGSTYYADSVKGRFTISRDNAKNTVYLQMNSLKPEDTAVYYCNAYHNYWRYRTDEMNYWGQGTQVTVSS	high polyreactivity
QVQLVESGGGLVQAGGSLRLSCAASGFIFYRYARGWYRQAPGQERELVAAITTSGARTYYADSVKGRFTISRDNAKNTVYLLMNSLKPEDTAGYSCAASPTPRVKMDYWGQGTQVTVSS	low polyreactivity
QVQLVESGGGLVQAGGSLRLSCAASGFIFYSNAMGWYRQAPGKERELVAAISRRGGSTYYADSVKGRFTISRDNAKNTVYLQMNSLKPEDTAVYYCAARVVSGFDSWGQGTQVTVSS	high polyreactivity
QVQLVESGGGLVQAGGSLRLSCAASGFIFYSNAMGWYRQAPGKERELVATITGDGGTTYYADSVKGRFTISRDNAKNTVYLQMNSLKPEDTAVYYCAKDYIYRGYYTDFRYEDYDYWGQGTQVTVSS	low polyreactivity
QVQLVESGGGLVQAGGSLRLSCAASGFIFYSYAMGWYRQAPGKERELVAAIDWDDGTTYYADSVKGRFTISRDNAKNTVYLQMNSLKPEDTAVYYCAAESYYGAYDYWGQGTQVTVSS	high polyreactivity
QVQLVESGGGLVQAGGSLRLSCAASGFIFYSYAMGWYRQAPGKERELVAAISTSGGSTYYADSVKGRFTISRDNAKNTVYLQMNSLKPEDTAVYYCNARGTRASRYDYWGQGTQVTVSS	high polyreactivity
QVQLVESGGGLVQAGGSLRLSCAASGFIFYSYAMGWYRQAPGKERELVAAISWSGGRTYYADSVKGRFTISRDNAKNTVYLQMNSLKPEDTAVYYCNADDYSFSFTVPYYIEYDYWGQGTQVTVSS	high polyreactivity
QVQLVESGGGLVQAGGSLRLSCAASGFIFYSYGMGWYRQAPGKERELVASITSSGTRTYYADSVKGRFTISRDNAKHTVYLQMNSLKPEDTAVYYCAASRFYYGIAYYRYDYWGQGTHVTVSS	high polyreactivity
QVQLVESGGGLVQAGGSLRLSCAASGFIFYTKAMGWSRQAPGKERELVATITTSGGRTYYADSVKGRFTISRDNAKNYVYLQMYSMKPEDTAFYYSATRYVVIEYDYWGQGTQVTVSS	low polyreactivity

Sequence	polyreactivity (PSR sort gate)
QVQLVESGGGLVQAGGSLRLSCAASGFIFYVNAMGWYREAPGNERQLVAAISLIGGSTYYADSVKGRFTISRDNAKNTVYLQMNSLIPEDTAVYYCAADPFPGVYDDAIIDYDYWGQGTQVTVSS	low polyreactivity
QVQLVESGGGLVQAGGSLRLSCAASGFIFYVYAMGWYRQARGKERELVAAISGGGDSTYYADSVKGRFTISRDNAKNTVYLQMNSLKPEHTAVYYCAAEPWANTPGEAGSPFDYWGQGTQVTVSS	low polyreactivity
QVQLVESGGGLVQAGGSLRLSCAASGFIFYYNAMGWDRQAPGKERELVAAIDSGGRTNYADSVKGRFTISRDNAKNTVYLQMNSLKPEDTAVYYCATDPYQPYEGDYWGQGTQVTVSS	low polyreactivity
QVQLVESGGGLVQAGGSLRLSCAASGFIFYYNAMGWYRQAPGKERELVAAIDSGGRTNYADSVKGRFTISRDNAKNTVYLQMNSLKPEDTAVYYCAADVITYATYGTRKFQRYGYWGQGTQVTVSS	low polyreactivity
QVQLVESGGGLVQAGGSLRLSCAASGFIFYYNAMGWYRQAPGKERELVAGISRSAGSTYYADSVKGRFTISRDNAKNTVYLQMNSLKPEDTAVYYCAALYLSYITGTSYYWGQGTQVTVSS	low polyreactivity
QVQLVESGGGLVQAGGSLRLSCAASGFIFYYNAMGWYRQAPGKERELVATIRGSGGSTYYADSVKGRFTISRDTAKNTVYLHMNSLKPEDTAVYYCATTIYGLTSRLYYWGQGTQVTVSS	high polyreactivity
QVQLVESGGGLVQAGGSLRLSCAASGFIFYYYAMGWYRPAPGKERELVAAISVRGGRTYYADSVKGRFTISRDNAKNTVYLQMNSLKPEDTAVYYCAADLYNRGRGSSQSYRTGYDYWGQGTQVTVSS	high polyreactivity
QVQLVESGGGLVQAGGSLRLSCAASGFIFYYYAMGWYRQAPGKERELVAGIDKTGGSTYYADSVKGRFTISRDNAKNPVYLQMNSLKPDDTAVYYCNAPYYRGGKDGYWGQGTQVTVSS	high polyreactivity
QVQLVESGGGLVQAGGSLRLSCAASGFIFYYYDMGWYRQAPGKERELVAAISTGGSTYYADSVKGRFTISRDNAKNTVYLQMNSLKPEDTAVYYCAADSYWSPYDYWGQGTQVTVSS	high polyreactivity
QVQLVESGGGLVQAGGSLRLSCAASGFIIAPNAMGWYRQAPGKDRELVAAISGGGSTYYADSVKGRFTISRDNAKNTVYLQMNSLKPEDTAVYYCAVAGRRGDEYDYWGQGTQVTVSS	low polyreactivity
QVQLVESGGGLVQAGGSLRLSCAASGFIIARNTMGWYRQAPAKERELVAAISSSGGSTYYADSVKGRFTISRDNAKNTFYLQMNCLKPEDTAVYYCNKGYTGLYGYDYWGQGTHVTVSS	high polyreactivity
QVQLVESGGGLVQAGGSLRLSCAASGFIIGDYAMGWYRQAPGKERELVAAITISGGGTYYADSVKGRFTISRDNAKNTVYLQMNSLKPEDTAVYYCAAGYYDLNLDTDFGFDYWGQGTQVTVSS	low polyreactivity
QVQLVESGGGLVQAGGSLRLSCAASGFIIGLYAMGWYRQAPGKERELVAAISGSGGSTYYADSVKGRFTISRDNAKNTVYLQMNSLKPEDTAVYYCNGAHGVHTYVYRYCYWGQGTQVTVSS	low polyreactivity
QVQLVESGGGLVQAGGSLRLSCAASGFIIGSYAMGWYRQAPGKERELVAAISRRTTNTYYADSVKGRFTISRDNAKNTVYLQMNSLKPEDTAVYYCARVTWYESDYWGQGTQVTVSS	high polyreactivity
QVQLVESGGGLVQAGGSLRLSCAASGFIIGSYTMGWNRQAPRKERELVASITKRGGSTYYADSVKGRFTISRDNAKNTVYLQMNSLKPEDTEVYYCAATYLFSHRSRYDYWGQGTQVTVSS	high polyreactivity
QVQLVESGGGLVQAGGSLRLSCAASGFIIIGYVMGWYRQSPGKERELVAAITSSVGSTYYADSVKGRFTISRDNAKNPVYLQMNSLKPEDTAVYYCAAEYYLLWSGMEYWGEGTQVTVSS	low polyreactivity
QVQLVESGGGLVQAGGSLRLSCAASGFIILINVMGWYRQAPGKERELVAVITGGGTTNYADSVKGRFTFSRDNAKNTVYLQMNSLKPEDTAVYYCAVDAGAGDNDYWGQGTQVTVSS	low polyreactivity
QVQLVESGGGLVQAGGSLRLSCAASGFIIRKYAMGWYRPAPGKEWELVAAISGRADSTYYADSVKGRFTISRDNAKNTVYLQMNSLKPDDTAVYYCAAYWHSKIGKGYDYWGQGTQVTVSS	high polyreactivity
QVQLVESGGGLVQAGGSLRLSCAASGFIISVYAMGWYRQAPGKERELVARIDSGGSTYYADSVKGRFTISRDNAKNTVYLQMNSLKPEDTAVYYCATDEGTVGGQQLRPLMDYWGQGTQVTVSS	low polyreactivity
QVQLVESGGGLVQAGGSLRLSCAASGFIITGNAMGWYRKAPGKERELVAAITSGGNTYYADSVKGRFTISRDNAKNTVYLQMNSLKPEDTAVYYCAKYVPHWRILMEYWGQGTQVTVSS	low polyreactivity
QVQLVESGGGLVQAGGSLRLSCAASGFIITQSAMGWYRQAPGTERELVAAISGNGGRTYYADSVKGRFTISRDNAKNTVYLQMNSLKPEDTAVYYCAVTRPGRRYPFCYDYWGQGTQVTVSS	low polyreactivity
